The target in the assay is T1, full-length β-Catenin (UniProt P35222 2-781, limits assumed).
T1 construct: mature; also called beta-catenin; beta-Catenin
T1 sequence (looked up): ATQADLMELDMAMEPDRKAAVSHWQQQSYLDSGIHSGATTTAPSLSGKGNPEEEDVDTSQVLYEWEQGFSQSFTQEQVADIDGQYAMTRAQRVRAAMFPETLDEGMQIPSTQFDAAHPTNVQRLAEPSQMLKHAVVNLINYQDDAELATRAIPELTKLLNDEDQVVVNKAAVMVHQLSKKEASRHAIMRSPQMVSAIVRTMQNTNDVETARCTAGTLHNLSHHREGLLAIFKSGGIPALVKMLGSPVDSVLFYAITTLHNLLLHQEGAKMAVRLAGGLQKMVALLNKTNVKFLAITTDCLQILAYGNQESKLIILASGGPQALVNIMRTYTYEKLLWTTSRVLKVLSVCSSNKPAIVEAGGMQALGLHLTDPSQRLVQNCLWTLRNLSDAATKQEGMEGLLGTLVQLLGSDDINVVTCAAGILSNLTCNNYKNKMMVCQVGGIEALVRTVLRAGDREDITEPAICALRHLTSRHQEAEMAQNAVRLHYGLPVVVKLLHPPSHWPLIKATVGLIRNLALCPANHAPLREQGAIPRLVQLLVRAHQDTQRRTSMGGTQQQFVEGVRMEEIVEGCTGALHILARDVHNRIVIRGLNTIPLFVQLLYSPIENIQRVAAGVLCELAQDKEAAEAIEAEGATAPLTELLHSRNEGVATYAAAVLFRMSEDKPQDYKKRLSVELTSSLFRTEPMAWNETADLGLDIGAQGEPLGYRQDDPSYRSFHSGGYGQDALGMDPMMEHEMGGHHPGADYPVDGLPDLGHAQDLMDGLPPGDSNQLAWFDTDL
The experiment in a line: competition fluorescence polarization vs FITC-Axin peptide probe on full-length beta-catenin. How it is done: Peptide assessment: In one assay for assessing binding to beta-catenin, peptide solutions were prepared in buffer (50 mM Tris pH 8.0, 250 mM NaCl, 2% glycerol, 0.5 mM EDTA, 0.02% w/v sodium azide) using a 3-fold serial dilution from 5 μM. Probe solution (15 nM full-length β-Catenin, 20 nM FITC labeled Axin peptide in buffer ([FAM-PEG1-RRWPR(S5)ILD(S5)HVRRVWR (SEQ ID NO: 44)] where the two S5 residues are stapled, as reported in: Proc Natl Acad Sci USA. 2012 Oct. 30; 109(44):17942-7)) was prepared and incubated for 5 minutes, then 40 μL per well plated in a black polystyrene 384-well plate (Corning). Equal volume of the titrated peptide was added to the plate and incubated protected from light for 15 minutes prior to read. Reads were performed on a Spectramax M5 (Molecular Devices) in duplicate.

Consider 22 molecules from patent US12398178 (PARABILIS MEDICINES, dated 2025).

Positions of bridges follow the written chain, without caps; N, C: chain ends. No end group written: not given here. Linker 15a = not defined here; Linker 15b = not defined here; Linker 10 = not defined here; Linker 11 = not defined here; Linker 12 = not defined here; Linker 13 = not defined here; Linker 16 = not defined here; Linker 7 = not defined here

Molecule ADPAHAECVLDYHICQIW (linker 8-15 via Linker 7 (inferred); reading uncertain, synthetic cysteine-stapled peptide) [Peptide ID 5, ADPAHAECVLDYHICQIW, staple type Linker 7] registered an EC50 of 0.117 µM.

Consider ADPALWACEHAALICETQ (linker 8-15 via Linker 16 (inferred); reading uncertain, synthetic cysteine-stapled peptide) [Peptide ID 46, ADPALWACEHAALICETQ, staple type Linker 16], for which the EC50 came to 5.82 µM.

In the case of ADPALWACEHAALICETQ (linker 8-15 via Linker 15a (inferred); reading uncertain, synthetic cysteine-stapled peptide) [Peptide ID 44, ADPALWACEHAALICETQ, staple type Linker 15a], the EC50 is 7.33 µM.

For the molecule ADPATHRCEWAALHCELV (linker 8-15 via Linker 11 (inferred); reading uncertain, synthetic cysteine-stapled peptide) [Peptide ID 32, ADPATHRCEWAALHCELV, staple type Linker 11], it took 5.17 µM to reach a half-maximal effect (EC50).

For the molecule ADPAQDHCILDTHICRIW (linker 8-15 via Linker 7 (inferred); reading uncertain, synthetic cysteine-stapled peptide) [Peptide ID 6, ADPAQDHCILDTHICRIW, staple type Linker 7], the 50% effective concentration (EC50) came out at 0.047 µM.

ADPADWECEHAALICDAM (linker 8-15 via Linker 7 (inferred); reading uncertain, synthetic cysteine-stapled peptide) [Peptide ID 12, ADPADWECEHAALICDAM, staple type Linker 7]: the midpoint of the response, the EC50, lay at 0.815 µM.

On to ADPALWACEHAALICETQ (linker 8-15 via Linker 12 (inferred); reading uncertain, synthetic cysteine-stapled peptide) [Peptide ID 42, ADPALWACEHAALICETQ, staple type Linker 12], for which it took 4.52 µM to reach a half-maximal effect (EC50).

In the case of ADPAPWQCEHAALLCELE (linker 8-15 via Linker 7 (inferred); reading uncertain, synthetic cysteine-stapled peptide) [Peptide ID 11, ADPAPWQCEHAALLCELE, staple type Linker 7], the EC50 was 0.922 µM. This EC50 is about 4.9-fold lower than that of the molecule before.

As to ADPALADCILAAHMCQLW (linker 8-15 via Linker 7 (inferred); reading uncertain, synthetic cysteine-stapled peptide) [Peptide ID 4, ADPALADCILAAHMCQLW, staple type Linker 7], the EC50 worked out at 5.52 µM.

The molecule ADPALWACEHAALICETQ (linker 8-15 via Linker 15b (inferred); reading uncertain, synthetic cysteine-stapled peptide) [Peptide ID 45, ADPALWACEHAALICETQ, staple type Linker 15b] had an EC50 of 5.57 µM.

ADPALWACEHAALICETQ (linker 8-15 via Linker 11 (inferred); reading uncertain, synthetic cysteine-stapled peptide) [Peptide ID 41, ADPALWACEHAALICETQ, staple type Linker 11]: a half-maximal effect (EC50) was put at 3.02 µM.

For ADPAEDECILAAHMCRWW (linker 8-15 via Linker 7 (inferred); reading uncertain, synthetic cysteine-stapled peptide) [Peptide ID 8, ADPAEDECILAAHMCRWW, staple type Linker 7], the 50% effective concentration (EC50) was 0.255 µM. This EC50 lies about 12-fold lower than the previous one.

For the molecule ADPAEDECILNNHICRIW (linker 8-15 via Linker 7 (inferred); reading uncertain, synthetic cysteine-stapled peptide) [Peptide ID 7, ADPAEDECILNNHICRIW, staple type Linker 7], the half-maximal effective concentration (EC50) amounted to 0.014 µM. Compared with the last molecule, the EC50 is about 18-fold lower.

Turning to ADPATHRCEWAALHCELV (linker 8-15 via Linker 7 (inferred); reading uncertain, synthetic cysteine-stapled peptide) [Peptide ID 1, ADPATHRCEWAALHCELV, staple type Linker 7], the EC50 was determined as 5.2 µM.

The molecule ADPALWACEHAALICETQ (linker 8-15 via Linker 7 (inferred); reading uncertain, synthetic cysteine-stapled peptide) [Peptide ID 2, ADPALWACEHAALICETQ, staple type Linker 7] returned an EC50 of 2.8 µM. This EC50 lies about 1.9-fold lower than the previous one.

For ADPAQWPCEHAALLCEIE (linker 8-15 via Linker 7 (inferred); reading uncertain, synthetic cysteine-stapled peptide) [Peptide ID 14, ADPAQWPCEHAALLCEIE, staple type Linker 7], the EC50 came out at 0.404 µM.

Regarding ADPALWACEHAALICETQ (linker 8-15 via Linker 10 (inferred); reading uncertain, synthetic cysteine-stapled peptide) [Peptide ID 40, ADPALWACEHAALICETQ, staple type Linker 10], the EC50 was 9.55 µM.

ADPAQWHCEHAALICELD (linker 8-15 via Linker 7 (inferred); reading uncertain, synthetic cysteine-stapled peptide) [Peptide ID 10, ADPAQWHCEHAALICELD, staple type Linker 7] registered an EC50 of 0.417 µM.

With ADPALWACEHAALICETQ (linker 8-15 via Linker 13 (inferred); reading uncertain, synthetic cysteine-stapled peptide) [Peptide ID 43, ADPALWACEHAALICETQ, staple type Linker 13], a half-maximal response (EC50) required 4.59 µM.

ADPATHRCEWAALHCELV (linker 8-15 via Linker 13 (inferred); reading uncertain, synthetic cysteine-stapled peptide) [Peptide ID 34, ADPATHRCEWAALHCELV, staple type Linker 13] registered an EC50 of 4.32 µM.

The molecule ADPATHRCEWAALHCELV (linker 8-15 via Linker 12 (inferred); reading uncertain, synthetic cysteine-stapled peptide) [Peptide ID 33, ADPATHRCEWAALHCELV, staple type Linker 12] yielded an EC50 of 5.35 µM.

With ADPAYWLCEHAALICEVE (linker 8-15 via Linker 7 (inferred); reading uncertain, synthetic cysteine-stapled peptide) [Peptide ID 13, ADPAYWLCEHAALICEVE, staple type Linker 7], the half-maximal effective concentration (EC50) is 0.456 µM.
